Data reported in PMC3215713, “Probing the Limits of Aptamer Affinity with a Microfluidic SELEX Platform”.

What was measured:
Bovine serum albumin [1] = biological target: T1, Bovine serum albumin (Bos taurus (Bovine), UniProt P02769 25-607); test: pulldown; PBS pH 7.4, 1 mM MgCl2, 0.025% Tween 20, RT; conditions: label: 5'-Alexa Fluor 488
thrombin = thrombin (UniProt P00734;P00734 315-363;364-622); test: bead-based fluorescence; PDGF-BB and ApoE: PBS pH 7.4, 1 mM MgCl2, 0.025% Tween 20; thrombin: 50 mM Tris pH 7.5, 100 mM NaCl, 1 mM MgCl2, 5 mM KCl, 1 mM CaCl2, 0.025% Tween 20; 1 h, roo
Bovine serum albumin [2] = biological target: T1, Bovine serum albumin; test: pulldown; 50 mM Tris pH 7.5, 100 mM NaCl, 1 mM MgCl2, 5 mM KCl, 1 mM CaCl2, 0.025% Tween 20, RT; conditions: label: 5'-Alexa Fluor 488
[3] = biological target: PDGF-BB (platelet-derived growth factor BB) (UniProt P01127 82-190); test: bead-based fluorescence; PDGF-BB and ApoE: PBS pH 7.4, 1 mM MgCl2, 0.025% Tween 20; thrombin: 50 mM Tris pH 7.5, 100 mM NaCl, 1 mM MgCl2, 5 mM KCl, 1 mM CaCl2, 0.025% Tween 20; 1 h, room temperature; conditions: protein: commercial; chain copies: 2; label: 5'-FAM
PDGF-BB (platelet-derived growth factor BB), sequence (P01127 82-190): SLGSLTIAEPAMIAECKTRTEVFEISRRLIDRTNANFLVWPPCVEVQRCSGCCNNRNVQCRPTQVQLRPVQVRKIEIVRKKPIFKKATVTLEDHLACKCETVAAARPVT

T1 sequence (P02769 25-607): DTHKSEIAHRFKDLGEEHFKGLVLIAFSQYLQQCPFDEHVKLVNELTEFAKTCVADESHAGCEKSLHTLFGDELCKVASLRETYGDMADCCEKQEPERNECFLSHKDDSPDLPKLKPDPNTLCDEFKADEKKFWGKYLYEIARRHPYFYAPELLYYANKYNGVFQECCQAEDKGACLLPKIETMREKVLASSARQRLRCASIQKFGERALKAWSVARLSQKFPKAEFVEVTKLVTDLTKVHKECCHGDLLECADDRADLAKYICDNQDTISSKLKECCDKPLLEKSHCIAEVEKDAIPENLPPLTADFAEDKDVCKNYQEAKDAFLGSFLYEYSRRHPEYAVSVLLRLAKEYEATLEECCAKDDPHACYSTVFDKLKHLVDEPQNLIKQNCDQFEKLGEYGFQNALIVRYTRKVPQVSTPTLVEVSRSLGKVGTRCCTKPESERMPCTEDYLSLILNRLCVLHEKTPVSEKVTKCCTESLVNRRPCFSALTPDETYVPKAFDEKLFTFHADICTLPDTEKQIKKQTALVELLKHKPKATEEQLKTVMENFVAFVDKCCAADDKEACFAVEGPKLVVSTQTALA

Binder	binding result (Bovine serum albumin [1])	Kd (thrombin) [nM]	further results
PDGF-09 (ssDNA) DNA: AGCAGCACAGAGGTCAGATGGAATCATGATCCCCCATGACCTGGGGGCGTTACTGGCGAGCATCATGAGAGATCGTGCGACCTATGCGTGCTACCGTGAA	no binding	–	–
GGTTGGTGTGGTTGG (ssDNA) [Bock thrombin aptamer (consensus 15-mer)]	–	1.2	–
ApoE-06 (Ahmad 2011) (ssDNA) DNA: AGCAGCACAGAGGTCAGATGACTAGCTACGGGGTGGGTGGGCGGTGTCAGTTTGTTTATTGGTGCTATACATCCTCTATACCTATGCGTGCTACCGTGAA	no binding	–	–
Thr-08 (ssDNA) DNA: AGCAGCACAGAGGTCAGATGCAGCGCTAGGGCTTTTAGCGTAATGGGTAGGGTGGTGCGGTGCAGATATCGGAATTGGTGCCTATGCGTGCTACCGTGAA	–	–	binding result (Bovine serum albumin [2]): no binding
AGTCCGTGGTAGGGCAGGTTGGGGTGACT (ssDNA) [Tasset thrombin aptamer 60-18[29]]	–	11.9	–
CACAGGCTACGGCACGTAGAGCATCACCATGATCCTGTG (ssDNA) [Green PDGF aptamer 36t]	–	–	Kd [3]: 0.12 nM
